Test results taken from the supplement of paper PMC10567573.

B1: SLC22A15 (parent)
chain: IAQYALLGYFIRSWRTLAILVNLQ

Variants of: B1
Assay: protein stability index of a GFP-peptide fusion (GPS, HEK-293T) (PSI 1-6); higher = more stable
Conditions: c terminus: a fixed tail appended
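Note: lentivirally expressed fusions sorted by FACS into six bins by GFP to DsRed ratio, PSI derived from sequencing read proportions per bin multiplied by bin number.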

| Variant | protein stability index |
| --- | --- |
| IAQYALLGYFIRSWRTLAILVFLQ | 2.84 |
| IAQYALLGYFIRSWRTLAILVGLQ | 1.88 |
| IAQYALLGYFIRSWITLAILVNLQ | 3.23 |
| IAQYALLGYFIRSWFTLAILVNLQ | 3.18 |
| IAQYALLGYFIRSWDTLAILVNLQ | 4.08 |
| IAQYALLGYFIRSWMTLAILVNLQ | 2.18 |
| IAQYALLGYFIRSWLTLAILVNLQ | 2.95 |
| IAQYALLGYFIRSWNTLAILVNLQ | 3.78 |
| IAQYALLGYFIRSWKTLAILVNLQ | 3.15 |
| IAQYALLGYFIRSWGTLAILVNLQ | 4.28 |
| IAQYALLGYFIRSWWTLAILVNLQ | 3.4 |
| IAQYALLGYFIRSWSTLAILVNLQ | 2 |
| IAQYALLGYFIRSWYTLAILVNLQ | 2.65 |
| IAQYALLGYFIRSWETLAILVNLQ | 1.81 |
| IAQYALLGYFIRSWCTLAILVNLQ | 2.86 |
| IAQYALLGYFIRSWHTLAILVNLQ | 2.65 |
| IAQYALLGYFIRSWATLAILVNLQ | 2.1 |
| IAQYALLGYFIRSWTTLAILVNLQ | 4.03 |
| IAQYALLGYFIRSWQTLAILVNLQ | 2.52 |
| IAQYALLGYFIRSWVTLAILVNLQ | 2.88 |
| IAQYALLGYFIRSWRVLAILVNLQ | 3.34 |
| IAQYALLGYFIRSWRELAILVNLQ | 2.07 |
| IAQYALLGYFIRSWRGLAILVNLQ | 2.8 |
| IAQYALLGYFIRSWRNLAILVNLQ | 2.63 |

| Variant | protein stability index |
| --- | --- |
| IAQYALLGYFIRSWRPLAILVNLQ | 5.02 |
| IAQYALLGYFIRSWRLLAILVNLQ | 2.43 |
| IAQYALLGYFIRSWRALAILVNLQ | 3.28 |
| IAQYALLGYFIRSWRHLAILVNLQ | 3.46 |
| IAQYALLGYFIRSWRQLAILVNLQ | 3.17 |
| IAQYALLGYFIRSWRSLAILVNLQ | 3.05 |
| IAQYALLGYFIRSWRRLAILVNLQ | 3.13 |
| IAQYALLGYFIRSWRMLAILVNLQ | 3.23 |
| IAQYALLGYFIRSWRILAILVNLQ | 4.01 |
| IAQYALLGYFIRSWRYLAILVNLQ | 3.88 |
| IAQYALLGYFIRSWRKLAILVNLQ | 1.98 |
| IAQYALLGYFIRSWRDLAILVNLQ | 1.58 |
| IAQYALLGYFIRSWRCLAILVNLQ | 4.17 |
| IAQYALLGYFTRSWRTLAILVNLQ | 3.02 |
| IAQYALLGYFSRSWRTLAILVNLQ | 2.68 |
| IAQYALLGYFYRSWRTLAILVNLQ | 2.72 |
| IAQYALLGYFVRSWRTLAILVNLQ | 2.88 |
| IAQYALLGYFIRQWRTLAILVNLQ | 2.61 |
| IAQYALLGYFIRGWRTLAILVNLQ | 2.4 |
| IAQYALLGYFIRIWRTLAILVNLQ | 3.82 |
| IAQYALLGYFIRWWRTLAILVNLQ | 2.3 |
| IAQYALLGYFIRHWRTLAILVNLQ | 3.68 |
| IAQYALLGYFIRPWRTLAILVNLQ | 2 |
| IAQYALLGYFIRRWRTLAILVNLQ | 3.53 |

| Variant | protein stability index |
| --- | --- |
| IAQYALLGYFIRAWRTLAILVNLQ | 2.29 |
| IAQYALLGYFIRDWRTLAILVNLQ | 3.34 |
| IAQYALLGYFIRKWRTLAILVNLQ | 1.4 |
| IAQYALLGYFIRMWRTLAILVNLQ | 3.12 |
| IAQYALLGYFIRNWRTLAILVNLQ | 2.56 |
| IAQYALLGYFIRFWRTLAILVNLQ | 2.29 |
| IAQYALLGYFIRYWRTLAILVNLQ | 2.3 |
| IAQYALLGYFIRLWRTLAILVNLQ | 4.37 |
| IAQYALLGYFIRVWRTLAILVNLQ | 2.11 |
| IAQYALLGYFIRCWRTLAILVNLQ | 3.26 |
| IAQYALLGYFIRTWRTLAILVNLQ | 3.14 |
| IAQYALLGYFIRSWRTGAILVNLQ | 3.63 |
| IAQYALLGYFIRSWRTTAILVNLQ | 4.02 |
| IAQYALLGYFIRSWRTRAILVNLQ | 1.98 |
| IAQYALLGYFIRSWRTAAILVNLQ | 3.45 |
| IAQYALLGYFIRSWRTPAILVNLQ | 2.05 |
| IAQYALLGYFIRSWRTWAILVNLQ | 2.85 |
| IAQYALLGYFIRSWRTKAILVNLQ | 2.4 |
| IAQYALLGYFIRSWRTQAILVNLQ | 2.85 |
| IAQYALLGYFIRSWRTIAILVNLQ | 2.52 |
| IAQYALLGYFIRSWRTYAILVNLQ | 2.18 |
| IAQYALLGYFIRSWRTHAILVNLQ | 3.02 |
| IAQYALLGYFIRSWRTFAILVNLQ | 2.3 |
| IAQYALLGYFIRSWRTSAILVNLQ | 3.35 |

| Variant | protein stability index |
| --- | --- |
| IAQYALLGYFIRSWRTVAILVNLQ | 4.09 |
| IAQYALLGYFIRSWRTDAILVNLQ | 2.83 |
| IAQYALLGYFIRSWRTMAILVNLQ | 2.57 |
| IAQYALLGYFIRSWRTEAILVNLQ | 3.59 |
| IAQYALLGYFIRSWRTLASLVNLQ | 1.99 |
| IAQYALLGYFIRSWRTLATLVNLQ | 2.44 |
| IAQYALLGYFIRSWRTLAALVNLQ | 3.93 |
| IAQYALLGYFIRSWRTLAQLVNLQ | 3.02 |
| IAQYALLGYFIRSWRTLAYLVNLQ | 3.28 |
| IAQYALLGYFIRSWRTLACLVNLQ | 3.7 |
| IAQYALLGYFIRSWRTLAKLVNLQ | 2.96 |
| IAQYALLGYFIRSWRTLAPLVNLQ | 3.94 |
| IAQYALLGYFIRSWRTLALLVNLQ | 2.4 |
| IAQYALLGYFIRSWRTLARLVNLQ | 2.16 |
| IAQYALLGYFIRSWRTLAFLVNLQ | 2.53 |
| IAQYALLGYFIRSWRTLAELVNLQ | 4 |
| IAQYALLGYFIRSWRTLANLVNLQ | 3 |
| IAQYALLGYFIRSWRTLAWLVNLQ | 2.01 |
| IAQYALLGYFIRSWRTLAVLVNLQ | 2.96 |
| IAQYALLGYFIRSWRTLAHLVNLQ | 3.34 |
| IAQYALLGYFIRSWRTLADLVNLQ | 3.35 |
| IAQYALLGYFIRSWRTLAMLVNLQ | 2.84 |
